Results taken from patent US20250326839A1 (VIGIL NEUROSCIENCE, published 2025).
Positions count from the first letter of the chain named.

B1: V24 (antibody, V domains shown)
VH: EVQLVQSGAEVKKPGESLKISCKGSGYSFTSYWIAWVRQMPGKGLEWMGIIYPGDSDVRYSPSFQGQVTISADKSISTAYLQWSSLKASDTAMYFCARSRTFYYDSSDYFDYWGQGTLVTVSS
VL: DIQMTQSPSSVSASVGDRVTITCRASQGISSWLAWYQQKPGKAPKLLIYAASSLQKGVPSRFSGSGSGTDFTLTISSLQPEDFATYFCQQADSFPHTFGQGTKLEIK
notes: also called 6E7 variant V24
B2: V25 (antibody, V domains shown)
VH: B1 VH with T30G, I50L, V58T
VL: B1 VL with Q55A, K56N, F94M, H96R
notes: also called 6E7 variant V25
B3: V26 (antibody, V domains shown)
VH: B1 VH with A35G, I50T, V58T, S99Q, F102M, Y112A
VL: B1 VL with K56R, F94Y, H96R
notes: also called 6E7 variant V26
B4: V27 (antibody, V domains shown)
VH: B1 VH with V58T, S61A, A97V
VL: B1 VL with K56R, H96R
notes: also called 6E7 variant V27; LV-103/HV-103
B5: V28 (antibody, V domains shown)
VH: B1 VH with T30Q, I50T, V58T, S99Q, Y103F
VL: B1 VL with K56S, F94L, H96R
notes: also called 6E7 variant V28
B6: V29 (antibody, V domains shown)
VH: B1 VH with T30K, V58T, S99Q
VL: B1 VL with K56N, H96R
notes: also called 6E7 variant V29
B7: V36 (antibody, V domains shown)
VH: B1 VH with I34L, V58T
VL: B1 VL with L54R, K56N, F94Y, H96R
notes: also called 6E7 variant V36
B8: V37 (antibody, V domains shown)
VH: B1 VH with F29H, V58T, Q65A
VL: B1 VL with K56W, F94Y, H96R
notes: also called 6E7 variant V37
B9: V38 (antibody, V domains shown)
VH: B1 VH with T30G, S99Q
VL: B1 VL with L54R, K56N, F94H, H96R
notes: also called 6E7 variant V38
B10: V39 (antibody, V domains shown)
VH: B1 VH with T30G, V58T, S61N, S99G
VL: B1 VL with Q55V, K56N, F94S, H96R
notes: also called 6E7 variant V39
B11: V40 (antibody, V domains shown)
VH: B1 VH with T30G, S99Q, F110S
VL: B1 VL with K56L, S93R, H96R
notes: also called 6E7 variant V40
B12: V41 (antibody, V domains shown)
VH: B1 VH with I50T, V58T, S99Q
VL: B1 VL with K56N, H96R
notes: also called 6E7 variant V41
B13: V48 (antibody, V domains shown)
VH: B1 VH with T30G, S99M
VL: B1 VL with K56T, F94L, H96R
notes: also called 6E7 variant V48
B14: V49 (antibody, V domains shown)
VH: B1 VH with T30N, I50T, V58T, Y60L
VL: B1 VL with L54R, K56N, F94Y, H96R
notes: also called 6E7 variant V49; LV-106/HV-106
B15: V50 (antibody, V domains shown)
VH: B1 VH with T30G, I50V, V58T, S99Q, F110L
VL: B1 VL with L54R, K56N, F94L, H96R
notes: also called 6E7 variant V50
B16: V51 (antibody, V domains shown)
VH: B1 VH with S99G, Y112N
VL: B1 VL with L54R, K56N, H96R
notes: also called 6E7 variant V51
B17: V52 (antibody, V domains shown)
VH: B1 VH with T30E, V58T, S99G
VL: B1 VL with K56R, S93R, H96R
notes: also called 6E7 variant V52; LV-107/HV-107
B18: V53 (antibody, V domains shown)
VH: B1 VH with V58T, S63H, S99Q
VL: B1 VL with K56N, H96R
notes: also called 6E7 variant V53
B19: V60 (antibody, V domains shown)
VH: B1 VH with S28H, S99Q, F110S
VL: B1 VL with K56R, Q89G, H96R
notes: also called 6E7 variant V60; LV-108/HV-108
B20: V61 (antibody, V domains shown)
VH: B1 VH with T30S, V58T, S61N, S99G
VL: B1 VL with Q55V, K56N, F94L, H96R
notes: also called 6E7 variant V61
B21: V62 (antibody, V domains shown)
VH: B1 VH with T30G, V58T, S61A, S99Q, D108G
VL: B1 VL with K56R, Q89G, H96R
notes: also called 6E7 variant V62
B22: V63 (antibody, V domains shown)
VH: B1 VH with T30R, V58T
VL: B1 VL with K56R, S93R, H96R
notes: also called 6E7 variant V63
B23: V64 (antibody, V domains shown)
VH: B1 VH with T30Q, V58T, S99G
VL: B1 VL with Q55A, K56N, F94Y, H96R
notes: also called 6E7 variant V64
B24: V65 (antibody, V domains shown)
VH: B1 VH with V58T
VL: B1 VL with K56N, H96R
notes: also called 6E7 variant V65
B25: V72 (antibody, V domains shown)
VH: B1 VH with A35G, V58T, S99G
VL: B1 VL with Q55V, K56N, F94Y, H96R
notes: also called 6E7 variant V72
B26: V73 (antibody, V domains shown)
VH: B1 VH with T30G, V58T, S63G, S99G
VL: B1 VL with L54R, K56N, F94Y, H96R
notes: also called 6E7 variant V73; LV-106/HV-109
B27: V74 (antibody, V domains shown)
VH: B1 VH with T30A, S99G
VL: B1 VL with K56L, H96R
notes: also called 6E7 variant V74
B28: V75 (antibody, V domains shown)
VH: B1 VH with V58T, S99G
VL: B1 VL with K56A, F94Y, H96R
notes: also called 6E7 variant V75
B29: V76 (antibody, V domains shown)
VH: B1 VH with T30G, V58T, S63E, S99Q, F110S
VL: B1 VL with T69R, H96R
notes: also called 6E7 variant V76; LV-109/HV-110
B30: V77 (antibody, V domains shown)
VH: B1 VH with V58T, S99Q
VL: B1 VL with L54R, K56N, H96R
notes: also called 6E7 variant V77
B31: V84 (antibody, V domains shown)
VH: B1 VH with S28G, V58T, S99Q, F110S
VL: B1 VL with A50G, K56N, H96R
notes: also called 6E7 variant V84
B32: V85 (antibody, V domains shown)
VH: B1 VH with T30R, I50T, V58T
VL: B1 VL with L54R, K56N, H96R
notes: also called 6E7 variant V85
B33: V86 (antibody, V domains shown)
VH: B1 VH with T30G, I34L, V58T, Q65E
VL: B1 VL with L54R, K56N, H96R
notes: also called 6E7 variant V86
B34: V87 (antibody, V domains shown)
VH: B1 VH with T30R, S63D
VL: B1 VL with K56W, H96R
notes: also called 6E7 variant V87
B35: V88 (antibody, V domains shown)
VH: B1 VH with T30G, V58T, S99Q
VL: B1 VL with S53R, K56R, F94S, H96R
notes: also called 6E7 variant V88

target: T1, human TREM2 (human, UniProt Q9NZC2 19-174, limits assumed); test: 1st screen, 10 nM Ab
T1 construct: also called triggering receptor expressed on myeloid cells 2
T1 sequence: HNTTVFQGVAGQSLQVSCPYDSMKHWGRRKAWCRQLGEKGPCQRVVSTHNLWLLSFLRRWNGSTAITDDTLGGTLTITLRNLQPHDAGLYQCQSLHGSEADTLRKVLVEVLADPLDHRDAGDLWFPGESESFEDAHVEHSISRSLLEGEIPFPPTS

Binder	Binding Signal
B1	2.64 fold over 6E7 parental antibody
B2	4.23 fold over 6E7 parental antibody
B3	3.57 fold over 6E7 parental antibody
B4	5.5 fold over 6E7 parental antibody
B5	3.08 fold over 6E7 parental antibody
B6	1.53 fold over 6E7 parental antibody
B7	3.38 fold over 6E7 parental antibody
B8	3.46 fold over 6E7 parental antibody
B9	4.34 fold over 6E7 parental antibody
B10	6.15 fold over 6E7 parental antibody
B11	4.48 fold over 6E7 parental antibody
B12	1.74 fold over 6E7 parental antibody
B13	2.42 fold over 6E7 parental antibody
B14	6.51 fold over 6E7 parental antibody
B15	4.1 fold over 6E7 parental antibody
B16	2.81 fold over 6E7 parental antibody
B17	3 fold over 6E7 parental antibody
B18	1.25 fold over 6E7 parental antibody

Binder	Binding Signal
B19	3.26 fold over 6E7 parental antibody
B20	5.08 fold over 6E7 parental antibody
B21	2.49 fold over 6E7 parental antibody
B22	3.76 fold over 6E7 parental antibody
B23	5.41 fold over 6E7 parental antibody
B24	2.05 fold over 6E7 parental antibody
B25	3.64 fold over 6E7 parental antibody
B26	5.12 fold over 6E7 parental antibody
B27	3.94 fold over 6E7 parental antibody
B28	4.64 fold over 6E7 parental antibody
B29	4.57 fold over 6E7 parental antibody
B30	1.43 fold over 6E7 parental antibody
B31	1.44 fold over 6E7 parental antibody
B32	5.41 fold over 6E7 parental antibody
B33	4.8 fold over 6E7 parental antibody
B34	3.84 fold over 6E7 parental antibody
B35	4.92 fold over 6E7 parental antibody

target: T1, human TREM2; test: 2nd screen, 10 nM

Binder	Binding Signal
B1	2.9 fold over 6E7 parental antibody
B2	4.7 fold over 6E7 parental antibody
B3	3.47 fold over 6E7 parental antibody
B4	5.69 fold over 6E7 parental antibody
B5	3.61 fold over 6E7 parental antibody
B6	1.67 fold over 6E7 parental antibody
B7	3.44 fold over 6E7 parental antibody
B8	3.49 fold over 6E7 parental antibody
B9	4.36 fold over 6E7 parental antibody
B10	5.81 fold over 6E7 parental antibody
B11	4.16 fold over 6E7 parental antibody
B12	1.72 fold over 6E7 parental antibody
B13	2.54 fold over 6E7 parental antibody
B14	6.58 fold over 6E7 parental antibody
B15	4.16 fold over 6E7 parental antibody
B16	3.18 fold over 6E7 parental antibody
B17	3.09 fold over 6E7 parental antibody
B18	1.17 fold over 6E7 parental antibody

Binder	Binding Signal
B19	3.63 fold over 6E7 parental antibody
B20	5.22 fold over 6E7 parental antibody
B21	2.89 fold over 6E7 parental antibody
B22	3.71 fold over 6E7 parental antibody
B23	5.48 fold over 6E7 parental antibody
B24	2.75 fold over 6E7 parental antibody
B25	4.01 fold over 6E7 parental antibody
B26	5.44 fold over 6E7 parental antibody
B27	4.01 fold over 6E7 parental antibody
B28	4.52 fold over 6E7 parental antibody
B29	4.93 fold over 6E7 parental antibody
B30	1.38 fold over 6E7 parental antibody
B31	1.62 fold over 6E7 parental antibody
B32	5.37 fold over 6E7 parental antibody
B33	5.02 fold over 6E7 parental antibody
B34	3.93 fold over 6E7 parental antibody
B35	5.3 fold over 6E7 parental antibody

target: T1, human TREM2; test: 2nd screen, 2 nM

Binder	Binding Signal
B1	1.42 fold over 6E7 parental antibody
B2	3.15 fold over 6E7 parental antibody
B3	2.83 fold over 6E7 parental antibody
B4	5.67 fold over 6E7 parental antibody
B5	2.63 fold over 6E7 parental antibody
B6	0.84 fold over 6E7 parental antibody
B7	4 fold over 6E7 parental antibody
B8	3.69 fold over 6E7 parental antibody
B9	3.44 fold over 6E7 parental antibody
B10	5.11 fold over 6E7 parental antibody
B11	3.41 fold over 6E7 parental antibody
B12	0.58 fold over 6E7 parental antibody
B13	2.3 fold over 6E7 parental antibody
B14	5.02 fold over 6E7 parental antibody
B15	3.39 fold over 6E7 parental antibody
B16	1.83 fold over 6E7 parental antibody
B17	1.78 fold over 6E7 parental antibody
B18	0.66 fold over 6E7 parental antibody

Binder	Binding Signal
B19	3.35 fold over 6E7 parental antibody
B20	3.63 fold over 6E7 parental antibody
B21	1.87 fold over 6E7 parental antibody
B22	4.91 fold over 6E7 parental antibody
B23	4.88 fold over 6E7 parental antibody
B24	1.29 fold over 6E7 parental antibody
B25	2.5 fold over 6E7 parental antibody
B26	4.17 fold over 6E7 parental antibody
B27	2.54 fold over 6E7 parental antibody
B28	3.74 fold over 6E7 parental antibody
B29	4.34 fold over 6E7 parental antibody
B30	0.83 fold over 6E7 parental antibody
B31	1.45 fold over 6E7 parental antibody
B32	5.41 fold over 6E7 parental antibody
B33	5.17 fold over 6E7 parental antibody
B34	4.86 fold over 6E7 parental antibody
B35	5.57 fold over 6E7 parental antibody
